# Measured values reported in publication doi:10.1101/2021.11.17.468837.
# Biological target: cyAbrB1 (Sll0359), N-terminally 6*His-tagged recombinant protein (Synechocystis sp. PCC 6803)
# Test: native gel or EMSA
substance,measurement,value
"cyAbrB1 (Sll0359), N-terminally 6*His-tagged recombinant protein (natural protein)",stoichiometry N,2
